Positions count from the first letter of the chain named. In names and notes the source's numbering stands.
B1: human BK channel β2 subunit C1S (C84S) (natural protein)
chain: MFIWTSGRTSSSYRHDEKRNIYQKIRDHDLLDKRKTVTALKAGEDRAILLGLAMMVCSIMMYFLLGITLLRSYMQSVWTEESQSTLLNASITETFNCSFSCGPDCWKLSQYPCLQVYVNLTSSGEKLLLYHTEETIKINQKCSYIPKCGKNFEESMSLVNVVMENFRKYQHFSCYSDPEGNQKSVILTKLYSSNVLFHSLFWPTCMMAGGVAIVAMVKLTQYLSLLCERIQRINR
B2: human BK channel β2 subunit C3S (C101S) (natural protein)
chain: B1 chain with S84C, C101S
B3: human BK channel β2 subunit C6S (C142S) (natural protein)
chain: B1 chain with S84C, C142S
B4: human BK channel β2 subunit C5S (C113S) (natural protein)
chain: B1 chain with S84C, C113S
B5: human BK channel β2 subunit (KCNMB2), wild type (natural protein)
chain: B1 chain with S84C
B6: human BK channel β2 subunit C8S (C174S) (natural protein)
chain: B1 chain with S84C, C174S
B7: human BK channel β2 subunit C7S (C148S) (natural protein)
chain: B1 chain with S84C, C148S
B8: human BK channel β2 subunit C4S (C105S) (natural protein)
chain: B1 chain with S84C, C105S
B9: human BK channel β2 subunit C2S (C97S) (natural protein)
chain: B1 chain with S84C, C97S

target: mouse Slo1 (mSlo1) BK channel α subunit, mbr5 splice variant (mouse)

Row | unbinding probability (q), from the non-inactivating offset of currents, inside-out patches of HEK293 cells, 10 μM Ca2+ | Binder
1 | 0.48 | B1
2 | 0.09 | B2
3 | 0.41 | B3
4 | 0.66 | B4
5 | 0.07 | B5
6 | 0.38 | B6
7 | 0.08 | B7
8 | 0.08 | B8
9 | 0.09 | B9

target: mouse Slo1 (mSlo1) BK channel α subunit, mbr5 splice variant (mouse); remark: another data set of the same source

Row | experimental rectification ratio Rβ2* of mSlo1+β2(C1S), not corrected for unbinding | experimental rectification ratio Rβ2* of mSlo1+β2(C2S), not corrected for unbinding | Binder
10 | 1.22 |  | B1
11 |  | 1.43 | B9

Reference: PMC6298698
